In IntAct's records for PubMed 19966303:

Key:
[1] = target: atc5_yeast DNF1 (UniProt P32660)
[2] = target: ypk1_yeast YPK1 (UniProt P12688)
Chain of ypk1_yeast YPK1 (P12688 whole entry): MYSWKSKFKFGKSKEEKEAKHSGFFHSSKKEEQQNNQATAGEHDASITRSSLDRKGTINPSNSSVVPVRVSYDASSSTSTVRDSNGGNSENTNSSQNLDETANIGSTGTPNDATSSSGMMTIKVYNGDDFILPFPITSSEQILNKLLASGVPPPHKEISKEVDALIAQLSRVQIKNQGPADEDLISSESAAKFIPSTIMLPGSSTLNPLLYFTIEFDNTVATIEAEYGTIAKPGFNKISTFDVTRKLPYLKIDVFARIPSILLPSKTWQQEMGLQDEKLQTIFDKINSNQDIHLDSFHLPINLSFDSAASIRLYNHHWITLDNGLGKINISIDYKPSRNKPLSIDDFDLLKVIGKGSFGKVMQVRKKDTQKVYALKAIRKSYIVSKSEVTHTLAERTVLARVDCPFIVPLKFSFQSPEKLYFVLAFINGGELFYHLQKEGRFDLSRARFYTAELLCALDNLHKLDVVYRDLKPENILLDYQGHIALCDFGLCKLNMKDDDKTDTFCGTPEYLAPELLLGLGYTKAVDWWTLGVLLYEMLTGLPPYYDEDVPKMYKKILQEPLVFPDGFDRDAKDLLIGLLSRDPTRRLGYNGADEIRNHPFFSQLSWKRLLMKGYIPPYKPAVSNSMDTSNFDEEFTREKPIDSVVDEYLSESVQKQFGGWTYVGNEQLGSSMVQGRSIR

Chain of atc5_yeast DNF1 (P32660 whole entry): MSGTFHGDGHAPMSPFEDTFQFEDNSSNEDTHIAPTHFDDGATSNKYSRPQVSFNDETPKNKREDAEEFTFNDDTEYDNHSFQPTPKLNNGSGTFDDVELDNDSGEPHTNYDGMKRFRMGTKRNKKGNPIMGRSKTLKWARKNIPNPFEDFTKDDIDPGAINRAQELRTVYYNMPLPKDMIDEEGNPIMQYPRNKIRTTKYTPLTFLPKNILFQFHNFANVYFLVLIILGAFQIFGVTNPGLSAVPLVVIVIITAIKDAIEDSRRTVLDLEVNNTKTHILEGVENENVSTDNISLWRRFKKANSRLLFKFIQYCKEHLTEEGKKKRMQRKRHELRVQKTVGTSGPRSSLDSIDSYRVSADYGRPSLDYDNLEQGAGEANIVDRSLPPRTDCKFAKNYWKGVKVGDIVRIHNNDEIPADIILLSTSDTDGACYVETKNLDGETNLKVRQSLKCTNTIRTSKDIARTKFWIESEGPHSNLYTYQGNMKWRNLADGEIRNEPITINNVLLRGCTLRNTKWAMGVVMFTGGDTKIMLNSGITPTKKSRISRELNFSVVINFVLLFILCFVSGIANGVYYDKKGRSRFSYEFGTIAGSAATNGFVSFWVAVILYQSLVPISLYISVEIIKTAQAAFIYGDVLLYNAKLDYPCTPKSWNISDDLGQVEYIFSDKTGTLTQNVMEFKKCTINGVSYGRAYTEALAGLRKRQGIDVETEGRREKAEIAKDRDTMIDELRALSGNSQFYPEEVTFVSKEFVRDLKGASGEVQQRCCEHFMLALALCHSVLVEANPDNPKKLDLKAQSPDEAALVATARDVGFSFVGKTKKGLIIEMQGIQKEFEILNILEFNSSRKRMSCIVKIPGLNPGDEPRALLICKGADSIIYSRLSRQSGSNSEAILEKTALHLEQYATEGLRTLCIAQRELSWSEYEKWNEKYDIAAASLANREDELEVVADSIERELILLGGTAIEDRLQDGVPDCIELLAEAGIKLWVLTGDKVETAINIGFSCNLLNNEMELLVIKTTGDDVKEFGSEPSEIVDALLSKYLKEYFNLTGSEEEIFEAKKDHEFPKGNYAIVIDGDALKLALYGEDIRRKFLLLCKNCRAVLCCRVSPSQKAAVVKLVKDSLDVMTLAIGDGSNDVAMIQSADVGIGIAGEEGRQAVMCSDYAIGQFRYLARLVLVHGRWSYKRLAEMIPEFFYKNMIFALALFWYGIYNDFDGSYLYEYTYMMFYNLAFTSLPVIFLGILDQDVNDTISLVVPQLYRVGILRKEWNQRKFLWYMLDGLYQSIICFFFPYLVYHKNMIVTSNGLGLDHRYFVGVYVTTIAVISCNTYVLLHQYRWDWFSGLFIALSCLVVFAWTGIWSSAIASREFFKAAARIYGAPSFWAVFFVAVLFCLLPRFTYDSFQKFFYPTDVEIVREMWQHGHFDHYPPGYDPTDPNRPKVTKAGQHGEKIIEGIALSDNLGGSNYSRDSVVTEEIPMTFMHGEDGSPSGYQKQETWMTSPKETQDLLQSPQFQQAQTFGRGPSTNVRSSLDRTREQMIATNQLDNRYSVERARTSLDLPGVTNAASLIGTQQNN

## Flippase kinase 1 (Saccharomyces cerevisiae), P53739 D621A
[1]
  effect of a mutation on the interaction: disrupting interaction
[2]
  effect of a mutation on the interaction: disrupting interaction
